We go through four substances from paper PMC6710095.

Like-named read-outs stand apart in the source and are kept apart here.

Assay [1] has as its target C-terminal fragment of TraF/VirB10 in the D1 complex (residues 1-129 removed) (plasmid pKM101). In words: negative stain electron microscopy.
The target in assay [2] is TraF/VirB10 with C-terminal Strep-tag (TraF/VirB10 C-ST) (plasmid pKM101). In words: negative stain electron microscopy.
The target in assay [3] is TraN/VirB7 (pKM101-encoded T4SS lipoprotein) (plasmid pKM101). The assay is described as follows: negative stain electron microscopy.
The target in assay [4] is TraF/VirB10 with C-terminal Strep-tag (TraF/VirB10 C-ST) (plasmid pKM101).
The target in assay [5] is TraO/VirB9 (pKM101-encoded T4SS) (plasmid pKM101). The assay is described as follows: negative stain electron microscopy.

As to “C-terminal fragment of TraF/VirB10 in the D1 complex (residues 1-129 removed) (domain or fragment)”, the stoichiometry N (usually a count of units in the complex or per binding partner) in assay [1] is 14.

For the substance “TraF/VirB10 with C-terminal Strep-tag (TraF/VirB10 C-ST) (natural protein)”, the stoichiometry N in assay [2] was found to be 14.

For the substance “TraN/VirB7 (pKM101-encoded T4SS lipoprotein) (natural protein)”, the stoichiometry N came to 14 in assay [3] and 1 in assay [4].

As to “TraO/VirB9 (pKM101-encoded T4SS) (natural protein)”, the results for the stoichiometry N in assay [5] and in assay [4] were 14 and 1, respectively.
